Three molecules from article PMC6614557 (Nature medicine, 2018) can be followed below.

The target in data set [1] is T1, ONECUT2 (OC2), OC2-HOX domain (Homo sapiens, UniProt O95948).
T1 sequence (O95948 330-485): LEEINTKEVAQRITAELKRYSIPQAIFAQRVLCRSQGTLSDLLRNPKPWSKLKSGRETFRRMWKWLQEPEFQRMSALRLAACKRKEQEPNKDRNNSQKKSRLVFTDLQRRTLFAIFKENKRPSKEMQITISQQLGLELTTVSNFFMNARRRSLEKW
As to the kind of experiment: SPR, His-tagged OC2-HOX immobilized, […] model fit. Type of data set: binding.

In data set [2] the target is T2, OC2-HOX (ONECUT2 homeodomain construct) (Homo sapiens, UniProt O95948 330-485).
T2 sequence: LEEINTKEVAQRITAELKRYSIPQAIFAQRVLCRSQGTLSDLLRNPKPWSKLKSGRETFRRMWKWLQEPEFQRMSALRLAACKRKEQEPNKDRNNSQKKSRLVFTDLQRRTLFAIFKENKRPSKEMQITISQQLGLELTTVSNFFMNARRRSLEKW
As to the kind of experiment: SPR. A general note: SPR reads the build-up and loss of mass on a sensor chip optically.

The data set “SEC” concerns the molecule itself. The experiment in a line: SEC.

Consider `NC(CO)C(=O)N/N=C/c1ccc(O)c(O)c1O` (racemic) [CSRM617, 1-{(E)-[(2,3,4-Trihydroxyphenyl)methylidene]hydrazino}−2-amino-3-hydroxy-1-propanone], for which binding in data set [1] was put at a Kd of 7.43 µM.

B1: PEG10 promoter OC2 motif probe (dsDNA)
DNA 1: TAGATCGATTTGCA
DNA 2: TGCAAATCGATCTA
In the case of B1, the dissociation constant Kd in data set [2] is roughly 0.001 µM.

B2: Recombinant OC2-HOX domain (L330-W485) of OC2 (domain or fragment, human, UniProt O95948 330-485, looked up)
chain: LEEINTKEVAQRITAELKRYSIPQAIFAQRVLCRSQGTLSDLLRNPKPWSKLKSGRETFRRMWKWLQEPEFQRMSALRLAACKRKEQEPNKDRNNSQKKSRLVFTDLQRRTLFAIFKENKRPSKEMQITISQQLGLELTTVSNFFMNARRRSLEKW
Regarding B2, in the data set “SEC”, the “stoichiometry N” value amounted to 2.

Broadly, the Kd is the constant that tells how readily two partners part at equilibrium. Low readings indicate tighter binding, high ones weaker binding. Broadly, the stoichiometry N is a count of units in the complex or per binding partner.
